Data published in paper PMC11169033.

Substrate: CN(C)c1ccc(/C=C/c2cc[n+](C)cc2)cc1
Experiment: saturation of fluorescent uptake in hOCT2-HEK293 cells (affinity, control condition)
Assay type: cell-based, Homo sapiens

B1: human organic cation transporter 2 (hOCT2) (Homo sapiens) (protein)
chain: MPTTVDDVLEHGGEFHFFQKQMFFLLALLSATFAPIYVGIVFLGFTPDHRCRSPGVAELSLRCGWSPAEELNYTVPGPGPAGEASPRQCRRYEVDWNQSTFDCVDPLASLDTNRSRLPLGPCRDGWVYETPGSSIVTEFNLVCANSWMLDLFQSSVNVGFFIGSMSIGYIADRFGRKLCLLTTVLINAAAGVLMAISPTYTWMLIFRLIQGLVSKAGWLIGYILITEFVGRRYRRTVGIFYQVAYTVGLLVLAGVAYALPHWRWLQFTVSLPNFFFLLYYWCIPESPRWLISQNKNAEAMRIIKHIAKKNGKSLPASLQRLRLEEETGKKLNPSFLDLVRTPQIRKHTMILMYNWFTSSVLYQGLIMHMGLAGDNIYLDFFYSALVEFPAAFMIILTIDRIGRRYPWAASNMVAGAACLASVFIPGDLQWLKIIISCLGRMGITMAYEIVCLVNAELYPTFIRNLGVHICSSMCDIGGIITPFLVYRLTNIWLELPLMVFGVLGLVAGGLVLLLPETKGKALPETIEEAENMQRPRKNKEKMIYLQVQKLDIPLN
notes: hOCT2 stably expressed in HEK293 cells
Km: 20.5 µM
